{
  "source": "paper PMC549075",
  "target": "Lamb brain tubulin (lamb)",
  "data": [
    {"substance": "Tat Oyi peptide 38-72 (from UniProt P20893 38-72)", "values": [
      {"measurement": "ΔOD 350 nm plateau of 15 μM tubulin at 37°C with 8 μM compound", "value": "0.78 ΔOD 350 nm"},
      {"measurement": "ΔOD ratio (plateau with 8 μM compound divided by plateau of tubulin alone)", "value": 2.56}
    ]},
    {"substance": "HIV-1 Tat protein, Eli strain (natural protein)", "values": [
      {"measurement": "ΔOD 350 nm plateau of 15 μM tubulin at 37°C with 8 μM compound", "value": "1.61 ΔOD 350 nm"},
      {"measurement": "ΔOD ratio (plateau with 8 μM compound divided by plateau of tubulin alone)", "value": 5.27}
    ]},
    {"substance": "Tat Eli peptide 38-72", "values": [
      {"measurement": "ΔOD 350 nm plateau of 15 μM tubulin at 37°C with 8 μM compound", "value": "1.59 ΔOD 350 nm"},
      {"measurement": "ΔOD ratio (plateau with 8 μM compound divided by plateau of tubulin alone)", "value": 5.2}
    ]},
    {"substance": "Tat Eli peptide 73-99", "values": [
      {"measurement": "ΔOD 350 nm plateau of 15 μM tubulin at 37°C with 8 μM compound (same level as the control: not active in tubulin polymerization)", "value": "0.3 ΔOD 350 nm"},
      {"measurement": "ΔOD ratio (plateau with 8 μM compound divided by plateau of tubulin alone)", "value": 1}
    ]},
    {"substance": "Tat Oyi peptide 73-101 (from UniProt P20893 73-101)", "values": [
      {"measurement": "ΔOD 350 nm plateau of 15 μM tubulin at 37°C with 8 μM compound (same level as the control: not active in tubulin polymerization)", "value": "0.31 ΔOD 350 nm"},
      {"measurement": "ΔOD ratio (plateau with 8 μM compound divided by plateau of tubulin alone)", "value": 1.01}
    ]}
  ]
}
